Source: US9260500B2, “Peptide and use thereof” (Takeda Pharmaceutical Company Limited, priority 2009, dated 2016)
Non-standard residues stand in square brackets, D forms with d. *: point of attachment. X2 = (tetrahydro-2H-pyran-4-ylmethyl)carbamoyl, O=C(NCC1CCOCC1)*; ((1S)-1-Carboxyethyl)carbamoyl = C[C@H](NC(=O)*)C(=O)O; Phe(2,6-Me2) = Cc1cccc(C)c1C[C@H](N)C(=O)O; Tetrahydropyran4carbonyl = O=C(C1CCOCC1)*; tBuAla = CC(C)(C)C[C@H](N)C(=O)O; 4Pal = N[C@@H](Cc1ccncc1)C(=O)O; dHyp = O=C(O)[C@H]1C[C@H](O)CN1; Cha = N[C@@H](CC1CCCCC1)C(=O)O; dIva = CC[C@@](C)(N)C(=O)O; Iva = CC[C@](C)(N)C(=O)O; Aib = CC(C)(N)C(=O)O

Key:
human Y2 receptor [1] = molecular target: T1, human Y2 receptor (Homo sapiens, UniProt P49146); experiment: Receptor Binding Assay (RBA) for Human Y2, [125I]-PYY displacement on hY2R/CHO membrane fraction; details: IC50 of test compound/IC50 of PYY(3-36) (PYY(3-36) taken as 1)
T1 construct: expressed in transfected cells; membrane fraction
T1 sequence (P49146 1-381): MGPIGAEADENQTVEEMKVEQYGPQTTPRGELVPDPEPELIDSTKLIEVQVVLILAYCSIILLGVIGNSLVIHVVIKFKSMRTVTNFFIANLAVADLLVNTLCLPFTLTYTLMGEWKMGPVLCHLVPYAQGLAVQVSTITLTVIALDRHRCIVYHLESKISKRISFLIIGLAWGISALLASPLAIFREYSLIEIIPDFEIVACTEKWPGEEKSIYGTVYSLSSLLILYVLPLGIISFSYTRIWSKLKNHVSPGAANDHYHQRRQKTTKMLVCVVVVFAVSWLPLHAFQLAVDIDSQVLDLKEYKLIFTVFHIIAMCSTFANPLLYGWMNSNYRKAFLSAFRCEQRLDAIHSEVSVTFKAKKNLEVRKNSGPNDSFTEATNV
How it was run: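 Read-out is [125I]-PYY displacement from membranes of CHO/dhfr− cells stably transfected with human Y2R. Membranes were obtained by disrupting cells in a buffer of 10 mM NaHCO3, 5 mM EDTA and protease inhibitors.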

male C57EL/6J mice = experiment: 3-Days Continuous Subcutaneous Administration Test-1 (food intake suppressing activity); type: in vivo, mouse; details: 0.03 mg/kg/day, subcutaneous Alzet pump, food consumption over 3 days; relative to food intake suppression rate for PYY(3-36) (1 mg/kg/day) taken as 100%
Procedure: (4) Test Method: 3-Days Continuous Subcutaneous Administration Test-1
The food intake suppressing activity of the compound of the present invention was examined by the method described below.
The test compound was dissolved in 50% DMSO so that sustained release would occur at 0.03 mg/kg/day, and the solution was filled in the Alzet Pump (Alzet model: 1003D, sustained release rate: 1 μL/hr, capacity: 100 μL). After the filling, the pump was placed in a 2 mL Eppendorf tube containing 330 μL of physiological saline, and incubated at 37° C. for 2 hours or more. Thereafter, this pump was subcutaneously embedded in the back of each mouse by the method described below. After weighing, each male […] mice at 12-13 weeks of age (25° C., allowed to take food and water ad libitum; 12-hour bright-12-hour dark cycle, lighting turned on at 08:00) was anesthetized with diethyl ether; the skin in the upper back thereof was incised, and the above-mentioned pump was embedded subcutaneously. Thereafter, several drops of penicillin solution (100000 units/mL) were added to the incised part, and the incision was sutured using Michel's surgical needle. This mouse was returned to the rearing cage (reared alone), and given previously weighed food; 3 days later, the amount of remaining food was measured. Food consumption was calculated by subtracting the amount of remaining food after 3 days from the weight of the food given on the day of pump embedding. The food intake suppressing activity of each test compound was expressed as a food intake suppression rate (%) relative to the food intake suppression rate for PYY(3-36) (1 mg/kg/day) taken as 100%.

human Y2 receptor [2] = molecular target: T1, human Y2 receptor; experiment: Human Y2 Receptor G Protein Binding Assay (GBA), [35S]GTPγS; type: biochemical; details: EC50 of test compound/EC50 of PYY(3-36) (PYY3-36 taken as 1), hY2R/CHO membrane fraction
How it was run: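 Agonism measured as [35S]GTPγS binding, read by GF/C filtration and scintillation counting after 120 min at room temperature, using human Y2 membranes at 1 μg protein/mL in pH 7.4 Tris/MgCl2/NaCl/GDP buffer. Compound serially diluted 100 μM–1 nM; EC50 normalized to PYY(3-36) (ratio = compound/PYY).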

Substance	RBA IC50 Ratio (human Y2 receptor [1])	food intake suppression rate (%) (male C57EL/6J mice)	GBA EC50 Ratio (human Y2 receptor [2])
Ac-[Glu23, D-Pro24, Iva25, Pya(4)26, Cha27,36, Aib28,31, Lys30]-PYY(23-36) (Ac-E[dP][Iva][4Pal][Cha][Aib]NK[Aib]TRQR[Cha]-NH2; SMILES CC[C@](C)(NC(=O)[C@H]1CCCN1C(=O)[C@H](CCC(=O)O)NC(C)=O)C(=O)N[C@@H](Cc1ccncc1)C(=O)N[C@@H](CC1CCCCC1)C(=O)NC(C)(C)C(=O)N[C@@H](CC(N)=O)C(=O)N[C@@H](CCCCN)C(=O)NC(C)(C)C(=O)N[C@H](C(=O)N[C@@H](CCCNC(=N)N)C(=O)N[C@@H](CCC(N)=O)C(=O)N[C@@H](CCCNC(=N)N)C(=O)N[C@@H](CC1CCCCC1)C(N)=O)[C@@H](C)O) [compound No. 322]	6.1	31	2.8
Ac-[D-Hyp24, Iva25,28, Pya(4)26, Cha27,36, Lys30, Aib31]-PYY(23-36) (Ac-S[dHyp][Iva][4Pal][Cha][Iva]NK[Aib]TRQR[Cha]-NH2; ends and bridges not checked) [compound No. 298]	0.86	56	1.0
[(1S)-1-Carboxyethyl]carbamoyl-[D-Pro24, Pya(4)26, Cha27,36, Aib28,31, Lys30]-PYY(23-36) ({((1S)-1-Carboxyethyl)carbamoyl}-S[dP]R[4Pal][Cha][Aib]NK[Aib]TRQR[Cha]-NH2; SMILES C[C@H](NC(=O)N[C@@H](CO)C(=O)N1CCC[C@@H]1C(=O)N[C@@H](CCCNC(=N)N)C(=O)N[C@@H](Cc1ccncc1)C(=O)N[C@@H](CC1CCCCC1)C(=O)NC(C)(C)C(=O)N[C@@H](CC(N)=O)C(=O)N[C@@H](CCCCN)C(=O)NC(C)(C)C(=O)N[C@H](C(=O)N[C@@H](CCCNC(=N)N)C(=O)N[C@@H](CCC(N)=O)C(=O)N[C@@H](CCCNC(=N)N)C(=O)N[C@@H](CC1CCCCC1)C(N)=O)[C@@H](C)O)C(=O)O) [compound No. 286]	0.78	37	0.94
Ac-[D-Hyp24, Iva25, Pya(4)26, Cha27,36, Leu(Me)28, Lys30, Aib31]-PYY(23-36) (Ac-S[dHyp][Iva][4Pal][Cha][tBuAla]NK[Aib]TRQR[Cha]-NH2; SMILES CC[C@](C)(NC(=O)[C@H]1C[C@H](O)CN1C(=O)[C@H](CO)NC(C)=O)C(=O)N[C@@H](Cc1ccncc1)C(=O)N[C@@H](CC1CCCCC1)C(=O)N[C@@H](CC(C)(C)C)C(=O)N[C@@H](CC(N)=O)C(=O)N[C@@H](CCCCN)C(=O)NC(C)(C)C(=O)N[C@H](C(=O)N[C@@H](CCCNC(=N)N)C(=O)N[C@@H](CCC(N)=O)C(=O)N[C@@H](CCCNC(=N)N)C(=O)N[C@@H](CC1CCCCC1)C(N)=O)[C@@H](C)O) [compound No. 335]	0.97	27	1.5
Ac-[D-Pro24, Pya(4)26, Cha27,36, Iva28, Lys30, Aib31]-PYY(23-36) (Ac-S[dP]R[4Pal][Cha][Iva]NK[Aib]TRQR[Cha]-NH2; SMILES CC[C@](C)(NC(=O)[C@H](CC1CCCCC1)NC(=O)[C@H](Cc1ccncc1)NC(=O)[C@H](CCCNC(=N)N)NC(=O)[C@H]1CCCN1C(=O)[C@H](CO)NC(C)=O)C(=O)N[C@@H](CC(N)=O)C(=O)N[C@@H](CCCCN)C(=O)NC(C)(C)C(=O)N[C@H](C(=O)N[C@@H](CCCNC(=N)N)C(=O)N[C@@H](CCC(N)=O)C(=O)N[C@@H](CCCNC(=N)N)C(=O)N[C@@H](CC1CCCCC1)C(N)=O)[C@@H](C)O) [compound No. 233]	0.33	36	1.2
Ac-[D-Pro24, Pya(4)26, Cha27, Aib28,31, Lys30, Phe(2,6-Me2)36]-PYY(23-36) (Ac-S[dP]R[4Pal][Cha][Aib]NK[Aib]TRQR[Phe(2,6-Me2)]-NH2; SMILES CC(=O)N[C@@H](CO)C(=O)N1CCC[C@@H]1C(=O)N[C@@H](CCCNC(=N)N)C(=O)N[C@@H](Cc1ccncc1)C(=O)N[C@@H](CC1CCCCC1)C(=O)NC(C)(C)C(=O)N[C@@H](CC(N)=O)C(=O)N[C@@H](CCCCN)C(=O)NC(C)(C)C(=O)N[C@H](C(=O)N[C@@H](CCCNC(=N)N)C(=O)N[C@@H](CCC(N)=O)C(=O)N[C@@H](CCCNC(=N)N)C(=O)N[C@@H](Cc1c(C)cccc1C)C(N)=O)[C@@H](C)O) [compound No. 329]	0.52	51	0.59
(Tetrahydro-2H-pyran-4-ylmethyl)carbamoyl-[D-Pro24, Iva25, Pya(4)26, Cha27,36, Aib28,31, Lys30]-PYY(23-36) (X2-S[dP][Iva][4Pal][Cha][Aib]NK[Aib]TRQR[Cha]-NH2; SMILES CC[C@](C)(NC(=O)[C@H]1CCCN1C(=O)[C@H](CO)NC(=O)NCC1CCOCC1)C(=O)N[C@@H](Cc1ccncc1)C(=O)N[C@@H](CC1CCCCC1)C(=O)NC(C)(C)C(=O)N[C@@H](CC(N)=O)C(=O)N[C@@H](CCCCN)C(=O)NC(C)(C)C(=O)N[C@H](C(=O)N[C@@H](CCCNC(=N)N)C(=O)N[C@@H](CCC(N)=O)C(=O)N[C@@H](CCCNC(=N)N)C(=O)N[C@@H](CC1CCCCC1)C(N)=O)[C@@H](C)O) [compound No. 340]	1.7	27	1.9
Ac-[D-Iva24, Pya(4)26, Cha27,36, Aib28,31, Lys30]-PYY(23-36) (Ac-S[dIva]R[4Pal][Cha][Aib]NK[Aib]TRQR[Cha]-NH2; SMILES CC[C@@](C)(NC(=O)[C@H](CO)NC(C)=O)C(=O)N[C@@H](CCCNC(=N)N)C(=O)N[C@@H](Cc1ccncc1)C(=O)N[C@@H](CC1CCCCC1)C(=O)NC(C)(C)C(=O)N[C@@H](CC(N)=O)C(=O)N[C@@H](CCCCN)C(=O)NC(C)(C)C(=O)N[C@H](C(=O)N[C@@H](CCCNC(=N)N)C(=O)N[C@@H](CCC(N)=O)C(=O)N[C@@H](CCCNC(=N)N)C(=O)N[C@@H](CC1CCCCC1)C(N)=O)[C@@H](C)O) [compound No. 242]	0.39	25	1.3
4-Imidazolecarbonyl-[D-Hyp24, Iva25,28, Pya(4)26, Cha27,36, Lys30, Adb31]-PYY(23-36) [compound No. 337]	0.99	49	1.3
(Tetrahydro-2H-pyran-4-yl)carbonyl-[D-Pro24, Iva25, Pya(4)26, Cha27,36, Aib28,31, Lys30]-PYY(23-36) (Tetrahydropyran4carbonyl-S[dP][Iva][4Pal][Cha][Aib]NK[Aib]TRQR[Cha]-NH2; SMILES CC[C@](C)(NC(=O)[C@H]1CCCN1C(=O)[C@H](CO)NC(=O)C1CCOCC1)C(=O)N[C@@H](Cc1ccncc1)C(=O)N[C@@H](CC1CCCCC1)C(=O)NC(C)(C)C(=O)N[C@@H](CC(N)=O)C(=O)N[C@@H](CCCCN)C(=O)NC(C)(C)C(=O)N[C@H](C(=O)N[C@@H](CCCNC(=N)N)C(=O)N[C@@H](CCC(N)=O)C(=O)N[C@@H](CCCNC(=N)N)C(=O)N[C@@H](CC1CCCCC1)C(N)=O)[C@@H](C)O) [compound No. 342]	3.3	36	1.9
Ac-[D-Pro24, Pya(4)26, Cha27,36, Aib28,31, Lys30]-PYY(23-36) [compound No. 138]	1.8	38	1.3
